Square brackets hold non-standard residues; d marks the D form. Side chains are listed from the residue outwards. Ends that are not written are not given here. * marks the point of attachment. Acetyl(2-(4-imidazolyl)) = O=C(Cc1c[nH]cn1)*

The term AUC(0-t) denotes exposure summed from dosing to a finite time, without extrapolation to infinity. The term Cmax denotes the highest concentration seen after dosing. In general, MRT last refers to the average time that molecules of a dose stay in the body. The Tmax is the time at which the peak concentration occurs. What is called half-life is how long it takes for the measured level to halve. A higher half-life goes with slow decline.

One data set in a line: in vivo. To be noted: SD, rat, sc, 2.5 mg/kg.
The target of another data set is T1, human GLP-2 receptor (Homo sapiens, UniProt O95838).
T1 construct: host or cells: CHO-K1
T1 sequence (O95838 1-553): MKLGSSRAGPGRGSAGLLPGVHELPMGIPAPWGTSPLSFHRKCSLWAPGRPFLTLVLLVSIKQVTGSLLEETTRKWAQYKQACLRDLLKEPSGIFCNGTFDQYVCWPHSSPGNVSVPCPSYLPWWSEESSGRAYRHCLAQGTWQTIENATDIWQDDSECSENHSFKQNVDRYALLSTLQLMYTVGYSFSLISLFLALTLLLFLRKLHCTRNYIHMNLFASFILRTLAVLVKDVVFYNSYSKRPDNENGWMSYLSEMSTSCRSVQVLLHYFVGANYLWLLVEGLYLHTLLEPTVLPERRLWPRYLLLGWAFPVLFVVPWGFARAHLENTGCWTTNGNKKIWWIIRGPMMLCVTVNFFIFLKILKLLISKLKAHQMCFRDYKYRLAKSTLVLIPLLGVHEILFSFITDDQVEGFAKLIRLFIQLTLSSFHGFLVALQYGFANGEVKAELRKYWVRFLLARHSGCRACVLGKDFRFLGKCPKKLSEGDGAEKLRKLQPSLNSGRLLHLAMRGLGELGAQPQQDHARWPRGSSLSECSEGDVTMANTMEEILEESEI
Briefly: In vitro activity: cAMP accumulation (LANCE cAMP kit) in CHO-K1 cells expressing human GLP-2 receptor. The data set is classed as cell-based. To be noted: for In vitro activity compared to human GLP-2 (%) (relative titer), GLP-2 derivative: GLP-2 derivative / Teduglutide. From the text: In order to measure the activities of the GLP-2 derivatives and the long-acting conjugates of GLP-2 derivatives, which had been obtained in the previous Examples, a cell line in which a GLP-2 receptor is transformed was used to measure the cell activity in vitro. The cell line is one that has been transformed to express a human GLP-2 receptor in Chinese hamster ovary (CHO)—K1, and thus is suitable for measuring the activity of GLP-2 (DiscoverX, U.S.A.).
In order to measure the activities of the GLP-2 derivatives and the long-acting conjugates thereof, human GLP-2 and Teduglutide (Gattex®, Shire) were subjected to a 3-fold serial dilution from 166.7 nM to 0.0028 nM; the GLP-2 derivatives were subjected to a 3-fold serial dilution from 500 nM to 0.0085 nM; and the long-acting conjugates of GLP-2 derivatives were subjected to a 3-fold serial dilution from 3000 nM to 0.0508 nM. The culture solution was removed from the cultured CHO-K1 cells, in which the human GLP-2 receptor is expressed, and then each of the serially diluted material was added to the cells in an amount of 5 μL, respectively. Thereafter, the buffer (5 μL) containing a cAMP antibody was added and then the cultivation was conducted at room temperature for 15 minutes. Then, a detection mix (10 μL) containing a cell lysis buffer was added thereto to dissolve the cells and reacted at room temperature for 60 minutes. The cell lysates, upon completion of the reaction, were applied to a LANCE cAMP kit (PerkinElmer, U.S.A.) to calculate the EC50 value via accumulated cAMP, and the values were compared with one another.
A general note: cAMP levels reflect the balance of adenylyl cyclase and phosphodiesterase activity.

The subject of another data set is C57BL/6 mice. Briefly: Effect of increasing in vivo intestinal weight in normal mice (Example 7). To be noted: 13 days, Teduglutide 7.5 & 15 nmol/kg/BID, conjugate 4.15, 7.5, 15, 30 nmol/kg/Q2D. As for the experimental part: Five mice were placed in each group and autopsied after 13 days of the administrations. The small intestines were perfused, and the weight of the small intestines and the length of the villi within the small intestines were measured.

Data set [1] is described as follows: Comparison of pharmacokinetics between long-acting conjugate of GLP-2 derivative and Teduglutide in SD rat (Example 6). To be noted: serum, sc, 2.5 mg/kg.
Protocol: 8-week-old normal rates were divided into a group administering Teduglutide (2.5 mg/kg) and a group administering the long-acting conjugate of CA GLP-2 RK (3.4K PEG) derivative (0.705 mg/kg). The test materials were subcutaneously injected once into the normal rats in each group (3 rats/group). Thereafter, whole blood was obtained by collecting blood samples from the coccygeal vein at 0.25, 0.5, 1, 1.5, 2, 3, 4, 6, 8, and 24 hours for the group administering Teduglutide; and at 4, 8, 24, 48, 72, 96, 120, 144, 168, 192, 216, 240, 264, 288, 312, and 336 hours for the group administering the long-acting conjugate of CA GLP-2 RK derivative. The whole blood was placed in a 1.5 mL microtube, centrifuged at room temperature at 5,000 rpm for 10 minutes, and then sera were separated and stored at −20° C. Concentrations of the stored sera from each group were quantified using an ELISA analysis method. For Teduglutide, a GLP-2 ELISA Kit (Alpco, #48-GP2HU-E01.1) was used. For the long-acting conjugate of CA GLP-2 RK derivative, a biotin-labeled GLP-2 polyclonal antibody (Phoenix Pharmaceuticals, #B-028-14) was bound to a plate coated with Streptavidin (Roche, #11645692001), and then reacted with the serum for 1 hour. After washing, anti-human IgG4-HPR (Alpha Diagnosis, #10124) was added thereto and allowed to react at room temperature for 1 hour. Thereafter, the resultants were subjected to a color reaction using a TMB reagent, and the absorbance was measured at a wavelength of 450 nm. Pharmacokinetic parameters thereof were calculated using the serum concentrations.
The conditions of data set [2]: inactivation by DPP IV; Bolette H. et al. 2000; cited from earlier work.
Data set [3] in a line: Pharmacokinetics of long-acting conjugates of GLP-2 derivatives in SD rat (Example 5). To be noted: normal SD rats, single subcutaneous injection 2.52 mg/kg, serum, ELISA. It counts as in vivo. On the procedure: The pharmacokinetics of the long-acting conjugates of GLP-2 derivatives were compared in normal rats.
Pharmacokinetic parameters thereof were calculated using the serum concentrations.
(In general: In an ELISA, binding on a coated surface is turned into a signal by an enzyme label.)

Setting [4] is: relative titer from cAMP EC50, CHO-K1 cells expressing human GLP-2 receptor.

With `CC[C@H](C)[C@H](NC(=O)[C@H](Cc1ccccc1)NC(=O)[C@H](CC(=O)O)NC(=O)[C@H](CCCNC(=N)N)NC(=O)[C@H](C)NC(=O)[C@H](C)NC(=O)[C@H](CC(C)C)NC(=O)[C@H](CC(N)=O)NC(=O)[C@H](CC(=O)O)NC(=O)[C@H](CC(C)C)NC(=O)[C@@H](NC(=O)[C@@H](NC(=O)[C@H](CC(N)=O)NC(=O)[C@H](CCSC)NC(=O)[C@H](CCC(=O)O)NC(=O)[C@H](CC(=O)O)NC(=O)[C@H](CO)NC(=O)[C@H](Cc1ccccc1)NC(=O)[C@H](CO)NC(=O)CNC(=O)[C@H](CC(=O)O)NC(=O)CNC(=O)[C@@H](N)Cc1c[nH]cn1)[C@@H](C)O)[C@@H](C)CC)C(=O)N[C@@H](CC(N)=O)C(=O)N[C@@H](Cc1c[nH]c2ccccc12)C(=O)N[C@@H](CC(C)C)C(=O)N[C@H](C(=O)N[C@@H](CCC(N)=O)C(=O)N[C@H](C(=O)N[C@@H](CCCCN)C(=O)N[C@H](C(=O)N[C@H](C(=O)N[C@@H](CC(=O)O)C(=O)O)[C@@H](C)O)[C@@H](C)CC)[C@@H](C)O)[C@@H](C)CC` [Teduglutide], in the data set “in vivo”, the AUC(0-t) amounted to 2.6 ± 0.581 µg·h/mL, the peak level (Cmax) was 1680 ± 744 ng/mL, the MRT last was found to be 1.4 ± 0.1 h and the Tmax was found to be 0.7 ± 0.3 h. At human GLP-2 receptor (setting [4]), the “In vitro activity compared to human GLP-2 (%) (relative titer), GLP-2 derivative” value is recorded as 147.5%. In the data set with C57BL/6 mice, the “length of the villi within the small intestines” value is reported as “increase in the length of the villi” and the “weight of the small intestines” value is listed as “increased in a dose-dependent manner”. In data set [1], this compound gave a half-life of 0.6 ± 0.1 h.
With “CA GLP-2 KC: GLP-2 derivative SEQ ID NO: 2: X1 imidazoacetyldeshistidine, X2 glycine, X30 lysine, X34 cysteine (XGDGSFSDEMNTILDNLAARDFINWLIQTKITDC; X1 imidazoacetyldeshistidine; GLP-2 derivative; (1) Xaa is imidazoacetyldeshistidine)”, the “In vitro activity compared to human GLP-2 (%) (relative titer), GLP-2 derivative” value with human GLP-2 receptor (setting [4]) was found to be 149.3%.
As for “CA GLP-2 KK: GLP-2 derivative SEQ ID NO: 3: X1 imidazoacetyldeshistidine, X2 glycine, X30 lysine, X34 lysine (XGDGSFSDEMNTILDNLAARDFINWLIQTKITDK; X1 imidazoacetyldeshistidine; GLP-2 derivative; (1) Xaa is imidazoacetyldeshistidine)”, the “In vitro activity compared to human GLP-2 (%) (relative titer), GLP-2 derivative” value in the data set with human GLP-2 receptor (setting [4]) amounted to 205.6%.
As to “CA GLP-2 RK: GLP-2 derivative SEQ ID NO: 4: X1 imidazoacetyldeshistidine, X2 glycine, X30 arginine, X34 lysine ([Acetyl(2-(4-imidazolyl))]GDGSFSDEMNTILDNLAARDFINWLIQTRITDK)”, the “In vitro activity compared to human GLP-2 (%) (relative titer), GLP-2 derivative” value in the data set with human GLP-2 receptor (setting [4]) was found to be 333.2%.
As for Glucagon-like peptide-2 [GLP-2], the in vivo half-life in data set [2] is at most 7 min.
As for “Long-acting conjugate of CA GLP-2 RC (10K PEG) derivative: CA-GLP-2 RC covalently linked to the immunoglobulin Fc by 10 kDa PEG at the 34th cysteine ([Acetyl(2-(4-imidazolyl))]GDGSFSDEMNTILDNLAARDFINWLIQTRITDC([PEG 10 kDa-immunoglobulin Fc]); also: Cys34 linked via 10 kDa PEG to immunoglobulin Fc)”, the “Activation of the GLP-2 receptor / relative potency (in words)” value with human GLP-2 receptor (CHO-K1 cells expressing human GLP-2 receptor, cAMP) was “higher activities compared to the long-acting conjugate of GLP-2 derivative (CA GLP-2 KC)”. Further, the “In vitro activity compared to human GLP-2 (%) (relative titer), conjugate of GLP-2 derivative” value with human GLP-2 receptor (relative titer from cAMP EC50, CHO-K1 cells expressing human GLP-2 receptor, long-acting conjugates) is 46.0%. In data set [3], this compound gave an AUClast of 1384.9499 ± 186.8176 µg·h/mL, a Cmax of 13350.4 ± 3611.4 ng/mL, an MRTlast of 88.9 ± 9.4 h and a T1/2 of 54.4 ± 6.9 h. In addition, the time of peak concentration (Tmax) in data set [3] turned out to be 26.7 ± 20.1 h.
